“And” between values parts separate entries of the source, which are not always exact repeats. Identical values can stand only once.
Tests used:
[1] = target: SNX3-retromer complex (Retromer + SNX3), Q96QK1; test: ITC; approximately 2–3 mM peptide titrated into SNX5^PX (300 μM) or the SNX3-retromer complex (10 μM Retromer + 100 μM SNX3); 100 mM HEPES pH 7.5, 300 mM NaCl, 2 mM βME, 25°C; one set of sites model (Fig 1D, 1E, 2B)
[2] = target: SNX3-retromer complex (retromer VPS35/VPS26/VPS29 with SNX3), Q96QK1; test: ITC; Fig 1E: approximately 2–3 mM of peptides titrated into the SNX3-retromer complex (10 μM Retromer + 100 μM SNX3); 100 mM HEPES pH 7.5, 300 mM NaCl, 2 mM βME, 25°C; one set of sites model; single values of triplicates

Row | Kd [1] [µM] | Kd [2] | Binder
1 | 110 | – | AQPELYLLNTMDADSLVSR (modifications not checked) [DMT1-II peptide]
2 | – | 100 µM and 113 µM and 117 µM | AQPELYLLNTMDADSLVSR (modifications not checked) [DMT1-II peptide (divalent metal transporter 1)]
